Data from article PMC5698462, “Production of recombinant human procollagen type I C-terminal propeptide and establishment of a sandwich ELISA for quantification” (Scientific Reports, 2017).

B1: Procollagen type I carboxy-terminal propeptide α2 chain (PICPα2), residues 1120–1366, with N-terminal c-myc tag (domain or fragment, human, UniProt P08123 1120-1366, looked up)
chain: DQPRSAPSLRPKDYEVDATLKSLNNQIETLLTPEGSRKNPARTCRDLRLSHPEWSSGYYWIDPNQGCTMDAIKVYCDFSTGETCIRAQPENIPAKNWYRSSKDKKHVWLGETINAGSQFEYNVEGVTSKEMATQLAFMRLLANYASQNITYHCKNSIAYMDEETGNLKKAVILQGSNDVELVAEGNSRFTYTVLVDGCSKKTNEWGKTIIEYKTNKPSRLPFLDIAPLDIGGADQEFFVDIGPVCFK
notes: C-terminal propeptide of the human type I procollagen α2 chain, residues 1120–1366 (residue numbers of type I procollagen); a restriction site was removed by a silent mutation; Cloned into pSecTag2A (AscI/ApaI) for secretion; also called c-myc-tagged PICPα2; source: HEK293F, transiently co-transfected with the PICPα1 plasmid (PICPα1:PICPα2 2:1 molar ratio), secreted; co-purified from culture …
B3: Procollagen type I carboxy-terminal propeptide α1 chain (PICPα1), residues 1218–1464, with N-terminal 8× His tag (domain or fragment, human, UniProt P02452 1218-1464, looked up)
chain: ADDANVVRDRDLEVDTTLKSLSQQIENIRSPEGSRKNPARTCRDLKMCHSDWKSGEYWIDPNQGCNLDAIKVFCNMETGETCVYPTQPSVAQKNWYISKNPKDKRHVWFGESMTDGFQFEYGGQGSDPADVAIQLTFLRLMSTEASQNITYHCKNSVAYMDQQTGNLKKALLLQGSNEIEIRAEGNSRFTYSVTVDGCTSHTGAWGKTVIEYKTTKTSRLPIIDVAPLDVGAPDQEFGFDVGPVCFL
notes: C-terminal propeptide of the human type I procollagen α1 chain, residues 1218–1464 (residue numbers of type I procollagen); Cloned into pSecTag2A (AscI/ApaI) for secretion; Two copies of this chain stand with one PICPα2 chain in the disulfide-linked PICP heterotrimer; also called 8× His-tagged PICPα1; recombinant PICPα1 chain; source: HEK293F, transiently co-transfected with the PICPα2 plasmid at …

Columns and labels:
[1] = target: B3; assay: pull-down; Ni-NTA purification through the 8× His tag on PICPα1 from culture supernatant of HEK293F cells co-transfected with PICPα1 and PICPα2 plasmids (2:1); western blot with anti-His and anti-c-myc antibodies, non-reducing and reducing SDS-PAGE; details: partners not purified
[2] = target: the molecule itself; assay: SEC; Superdex 200 10/300 GL; purified PICP (2 mg/mL) in TBS (500 mM NaCl, 2.7 mM KCl, 12 mM Tris, pH 7.4); purified PIIICP in PBS pH 7.4; apparent molecular weight against standard markers
[3] = target: B1; assay: non-reducing and reducing SDS-PAGE (stain, western blot) and SDS-CGE; purified proteins run under non-reducing and reducing conditions; band intensity (ImageJ) and peak area (Agilent 2100 bioanalyzer, Protein 230 kit) quantified; disulfide-linked trimers; details: both partners purified

## B1
[1]
  binding result: binds

B2: Procollagen type III C-terminal propeptide (PIIICP), homotrimer of PIIICPα1 (residues 1222–1466) with N-terminal 8× His tag (domain or fragment, human, UniProt P02461 1222-1466, looked up)
chain: DEPMDFKINTDEIMTSLKSVNGQIESLISPDGSRKNPARNCRDLKFCHPELKSGEYWVDPNQGCKLDAIKVFCNMETGETCISANPLNVPRKHWWTDSSAEKKHVWFGESMDGGFQFSYGNPELPEDVLDVHLAFLRLLSSRASQNITYHCKNSIAYMDQASGNVKKALKLMGSNEGEFKAEGNSKFTYTVLEDGCTKHTGEWSKTVFEYRTRKAVRLPIVDIAPYDIGGPDQEFGVDVGPVCFL
notes: C-terminal propeptide of the human type III procollagen α1 chain, residues 1222–1466; Mammalian secretion plasmid; also called 8× His-tagged PIIICPα1; recombinant PIIICP; source: HEK293F, transiently transfected, secreted; purified from culture supernatant (Ni-NTA); not shown: 8× His, N-terminal, kept
[2]
  stoichiometry N: 3

## B3
[3]
  stoichiometry N: 2 PICPα1 chains per PICPα2 chain
